Source: the nanobody polyreactivity screen of Harvey et al. (2022)

Assay: yeast display, Sf9 membrane polyspecificity reagent, FACS + sequencing; frameworks hold sequencing errors
How it was run: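 Polyreactivity labels are assigned by the sorting gate from which each nanobody was recovered. The gates were low and high (top ~1%), set on anti-HA fluorescence for expression and streptavidin fluorescence for reagent binding. Before sorting, galactose-induced (36–48 hours) yeast display cells were stained for 1 hour at 4 °C with 10% biotinylated, detergent-solubilized Sf9 membrane reagent.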

Row | Sequence | polyreactivity (PSR sort gate)
1 | QVQLVESGGGLVQAGGSLRLSCAASRSIFGYNAMGWYRPAPGKEREFVAAIRWSSGSTYYADSVKGRFTISRDNAKNTVYLQMNSLKPEDTAVYYCATRQTYLYLGQGTQVTVSS | high polyreactivity
2 | QVQLVESGGGLVQAGGSLRLSCAASRSIFRIYAMGWYRQAPGKERELVAGISKSGGSTYYADSVKGRFTISRDNAKNTVYLQMNSLKPEDTAVYYCNAGYNWSGLAVGRYGYDSWGQGTQVTVSS | low polyreactivity
3 | QVQLVESGGGLVQAGGSLRLSCAASRSTFFHYAMGWNRQAPGKERELVAAISSDGITNYADSVKGRFTISRDNAKNTVYLQMNILIPEDTAVYYCNAETVSTVGLGYWGQGTQVTVSS | low polyreactivity
4 | QVQLVESGGGLVQAGGSLRLSCAASRSTFNYYTMGWYRQAPGKERELVAAISRGGSTYYADSVKGRFTISRDNAKNTVYLQMNSLKPEDTAVYYCAATVYPRYFRKYDYWGQGTQVTVSS | high polyreactivity
5 | QVQLVESGGGLVQAGGSLRLSCAASRSTFPKYAMGWNRKAPGKERELVASISVTTGSPYYADSVKGRFTISLDNAKNTVYLQKNSLKPEDTAVYYCAKRTYSRKFRGAYNYWGQGTQVSVSS | high polyreactivity
6 | QVQLVESGGGLVQAGGSLRLSCAASRSTFRYYTMGWYRQSPGKERELVARISRSGGSTYYADSVKGRFTISRDNAKNTVYLQMNSLKPEDTSVYYCAALYYVKPGQRYDYWGQGTQVTVSS | high polyreactivity
7 | QVQLVESGGGLVQAGGSLRLSCAASRSTFSDNAMGWYRQAPGKERELVAAISRSGGSTYYADSVKGRFTISRDTAKNTVYLQMNSLKPEDTAVYYCATKRVLTGYDSWGQGTQVTVSS | high polyreactivity
8 | QVQLVESGGGLVQAGGSLRLSCAASRSTLSTYAMGWYRQAPGTERELVAAITWSDDSTYYADSVKGRFTISRDNAKNTVYLQMNSLKPEDTAVYYCAAEYISWFFGYDYWGQGTQVTVSS | high polyreactivity
9 | QVQLVESGGGLVQAGGSLRLSCAASRYIFSRNAMGWYRQAPGKERELVAAISLRGGSTYFADSVKGRFTISRDNAKNTVYLQMNSLKPEDTAVYYCAAPLFSGYDYWGQGTQVTVSS | low polyreactivity
10 | QVQLVESGGGLVQAGGSLRLSCAASVFISSWYDMGWYRQAPGKERQLVAAIRSSGGNTYYADSVKGRFTISRDNAKNTVYLQMNSLKPEDTAVYYCAKDWKSEDGGYYWGQGTQVTVSS | high polyreactivity
11 | QVQLVESGGGLVQAGGSLRLSCAASVFTFSPNAMGWYRQAPGKERELVAAISKRGASTYYADSVKGRFTISRDNAKNTVYLQMNSLKPEDTAVYYCNVGASARKPYDYWGQGTQVTVSS | high polyreactivity
12 | QVQLVESGGGLVQAGGSLRLSCAASVGTFRRYAKGWYREAPGKERELVAAISWTGGSTYYADSVKGRFTISRDNAKNNVYLQMNSLKPEDTAVYYCAAVGSSSSKGGYWGQGTQVTVSS | high polyreactivity
13 | QVQLVESGGGLVQAGGSLRLSCAASVITFDVYAMGWYRPAPGKERELVAAISSVGGTYYADSVKGRFTISRDNAKNTVYLQMISLKPEDTAVYYCNTDGYVGSIRSGLYIYDYWGQGTQVTVSS | low polyreactivity
14 | QVQLVESGGGLVQAGGSLRLSCAASVITFNYNARGWYRQAPGKERELVARITWSGTRTYYADSVKGRFTMSRDNANNTVYLQMNSLKPEDTGVYYCNAGPYARYYWGQGTQVTVSS | high polyreactivity
15 | QVQLVESGGGLVQAGGSLRLSCAASVLIFEAYAMGWYRQAPAKERELVATINKSGGSTYYADSVKGRFTISRDNAKNTVYLQMNSLKPEDTAVYFCAAFFLLPSPWPSYWCWNGDYWGQRTQVTVSS | low polyreactivity
16 | QVQLVESGGGLVQAGGSLRLSCAASVLIFYDNIGWYRQAPGKERELVAAIDSGGNTYADSVKGRFTISRDNAKNTVYLQMNSLKPEDTAVYYCAVDGGEFSSYGYWGQGTQVTVSS | low polyreactivity

Row | Sequence | polyreactivity (PSR sort gate)
17 | QVQLVESGGGLVQAGGSLRLSCAASVNTFWYYTMGWYRQAPGKERELVAAITGGGRTYYADSVKGRFTISRDNAKNSVYLQMNSLKPEDTAVYYCAKPWGSDFGSWGQGTQVTVSS | low polyreactivity
18 | QVQLVESGGGLVQAGGSLRLSCAASVRIFEVYAMGWYRQAPGKERELVAAISSGGGSTYYADSVKGRFTISRDNAKNTVFLQMISLKPEDTAVYYCAADEVTKKNSFPRIMDYWGQGTQVTVSS | high polyreactivity
19 | QVQLVESGGGLVQAGGSLRLSCAASVRIFRINTMGWYRQAPGKERELVAAIRTSGSSTYADSVKGRFTISRDNAKNTVYLQMNSLKPEDTAVYYCNTKYPGRGYYWGQGTQVTVSS | high polyreactivity
20 | QVQLVESGGGLVQAGGSLRLSCAASVRTFYYYAMGWYRQAPGKERELVARISRGGSTNYADSVKGRFTISRDNAKNTVYLLMNSLKTEDTAVYYCAKSISYTGRYWGYDYWGQGTQVTVSS | high polyreactivity
21 | QVQLVESGGGLVQAGGSLRLSCAASVSIFKGYAMGWYRQAPGKERELVAAITGSDGSTYADSVKGRFTISRDNAKNTVYLQMNSLKPEDTAVYYCNTGGWTRYRPPGYEWNWYDYWGQGTQVTVSS | low polyreactivity
22 | QVQLVESGGGLVQAGGSLRLSCAASVSIIPHNTMGWYRQAPGKEMELVAAISRSGGSTYYADSVKGRFTISRDNGKKTVYLQMNSLKPEDTAVYYCSSDSYDVGHQVVSEERLYDYWGQGTQVTVSS | low polyreactivity
23 | QVQLVESGGGLVQAGGSLRLSCAASVSTFEANAMGWYRQAPGKERELVAVITWTGGSTYYADSVKGRFTISRDYAKNNVYLQMNSLKPEDTAVYYCAAKFHRFAWYSHYDYWGQGTQVTVSS | low polyreactivity
24 | QVQLVESGGGLVQAGGSLRLSCAASVSTFTFNDMGWSRQAPGKERELVAAITSGGSTTYADSVKGRFTISRDNAKNTVYLQMNSLKPEDTAVYYCAADYVYFYFYGYASWGQGTQVTVSS | low polyreactivity
25 | QVQLVESGGGLVQAGGSLRLSCAASVSTIGTYAMGWYRQAPGKERELVAAISTGGSTYYADSVKGRFTISRANAKNTVHLQMNSLKPEDTAVYYCAALADYVRRASDYWGQGTQVTVSS | low polyreactivity
26 | QVQLVESGGGLVQAGGSLRLSCAASVYIFVRNALGWYRQAPGKERELVAAISGSGGSTYYADSVKGRFTISRDNAKNTVSLQMNSLIPEDTAVDYCAADYATVTWRGIAYDYWGQGTQVTVSS | low polyreactivity
27 | QVQLVESGGGLVQAGGSLRLSCAASVYTFPSYVMGWYRQAPGKERELVAAISSGSRTYYADSVKGRFTISRDNAKNTVYLQMNSLKPEDTAVYYCNARGFPGKFGYWGPGTQVTVSS | high polyreactivity
28 | QVQLVESGGGLVQAGGSLRLSCAASVYTFYKYAMGWYRQAPGKERELVAAISSSGGSTYYADSVKGRFTISRDNAKNTVYLQMNSLKPEDTAVYYCAAYVYSNDYDYWGQGTQVTVSS | high polyreactivity
29 | QVQLVESGGGLVQAGGSLRLSCAATGFFFGPYVMGWYRQATGKERELVAVITWTGGSTSYADSVKGRFTISRDNAKNTVYLQMNSLKREDTAVYYCAARTHQYRSRSYYYWGQGTQVTVSS | high polyreactivity
30 | QVQLVESGGGLVQAGGSLRLSCAATGFIFTDNVMGWYRQAPGKERELVAAISRRGGSTYYADSVKGRFTISRDNAKNTVYLQMNSLKPEDTAVYYCNVARQSYLLDYWGQGSQVTVSS | high polyreactivity
31 | QVQLVESGGGLVQAGGSLRLSCAATGFTFCANAMGWYRQAPGKERELVAAISWTGVNTYYADSVKGRFTISRDNAKNTVYLQMNSLKPEDTAVYSCAAEQWSTGYYYWGQGTQVTVSS | high polyreactivity
32 | QVQLVESGGGLVQAGGSLRLSCAATGFTFIHYGMGWYRQAPGKERELVAAITWRGDRTYADSVKGRFTISRDNANNTVYLQMNSLKPEDTAVYYCAAVSANQDFDYWGQGTQVTVSS | high polyreactivity
